Measured values published in patent US20220162331A1 (CHENGDU CONMED BIOSCIENCES, published 2022).
Residue numbers refer to the chain shown, from its start.

T1: human CD73 on Calu6 cells (human, UniProt P21589 27-549)
T1 sequence (looked up): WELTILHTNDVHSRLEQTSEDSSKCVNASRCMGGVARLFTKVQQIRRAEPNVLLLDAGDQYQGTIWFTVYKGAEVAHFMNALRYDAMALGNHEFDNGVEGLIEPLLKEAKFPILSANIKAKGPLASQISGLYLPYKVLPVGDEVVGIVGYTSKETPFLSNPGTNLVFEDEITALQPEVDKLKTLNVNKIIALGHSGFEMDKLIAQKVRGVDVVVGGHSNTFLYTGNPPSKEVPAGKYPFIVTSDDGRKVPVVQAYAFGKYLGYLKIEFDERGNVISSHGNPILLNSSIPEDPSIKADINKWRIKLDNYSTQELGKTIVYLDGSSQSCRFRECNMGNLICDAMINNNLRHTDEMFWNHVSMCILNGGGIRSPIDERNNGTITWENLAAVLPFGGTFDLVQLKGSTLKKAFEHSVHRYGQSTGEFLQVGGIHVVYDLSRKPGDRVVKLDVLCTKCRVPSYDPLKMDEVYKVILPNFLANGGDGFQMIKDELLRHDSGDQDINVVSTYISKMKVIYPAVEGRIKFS

T2: human full-length CD73 on hCD73-CHO-1C11 cells (human, UniProt P21589 27-549)
T2 construct: it may be a nucleotide entry; also called CHO-CD73-1C11
T2 sequence: T1 sequence (looked up)

T3: recombinant cynomolgus monkey CD73 extracellular domain (Trp27-Lys546) (cynomolgus monkey, UniProt P21589 27-547 (human entry))
T3 construct: also called cynoCD73; recombinant monkey CD73 extracellular domain
T3 chain: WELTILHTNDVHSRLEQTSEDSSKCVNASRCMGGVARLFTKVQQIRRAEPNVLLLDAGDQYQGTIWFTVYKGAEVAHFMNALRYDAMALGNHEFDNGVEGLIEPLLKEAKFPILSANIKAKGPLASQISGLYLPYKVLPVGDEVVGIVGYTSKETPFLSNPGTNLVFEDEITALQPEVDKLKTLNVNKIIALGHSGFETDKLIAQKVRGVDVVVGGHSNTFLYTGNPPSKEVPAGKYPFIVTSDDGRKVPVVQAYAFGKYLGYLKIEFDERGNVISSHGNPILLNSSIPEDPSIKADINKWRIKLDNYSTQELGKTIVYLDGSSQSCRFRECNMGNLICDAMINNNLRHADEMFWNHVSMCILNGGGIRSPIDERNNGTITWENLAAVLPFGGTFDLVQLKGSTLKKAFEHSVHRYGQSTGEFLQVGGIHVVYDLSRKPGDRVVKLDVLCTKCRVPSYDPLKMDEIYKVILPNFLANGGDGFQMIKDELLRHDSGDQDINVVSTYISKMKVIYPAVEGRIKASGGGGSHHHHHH

T4: recombinant human CD73 extracellular domain (Trp27-Lys546) with C-terminal 6-histidine tag (human, UniProt P21589 27-547)
T4 construct: also called hCD73; hCD73-cHis
T4 sequence: T3 chain with T199M, A350T, I466V

B1: CD73 antibody 2D4 (antibody, V domains shown)
VH: EVKLVESGGGLVQPGGSLKLSCATSGFTFSDYYMYWVRQTPEKRLEWVAYISNVGGSTYYPDTVKGRFTISRDNAKNTLYLQMSRLKSEDTAIYYCARGDGYYGYYFDVWGAGTTVTVSS
VL: QIVLTQSPAIMSASPGEKVTMTCSASSSVSYMHWYQQKSGTSPKRWIYDTSKLASGVPARFSGSGSGTSYSLTISSMEAEDAATYYCQQWSSNPYTFGGGTKLEIK
notes: also called Clone 2D4
B2: CD73 antibody 2H2 (antibody, V domains shown)
VH: B1 VH with I93M
VL: B1 VL with Q1E, I2N, A59T, Y70F
notes: also called Clone 2H2
B3: CD73 antibody 14E4 (antibody, V domains shown)
VH: QVQLQQSGPELVKPGASVKISCKASGYIFTNYYIHWVKQRPGQGLEWIGWIFPGSGNTKYSEKFKDKATLTADTSSSTAYMQLSSLTSEDSAVYFCAGLSDWGQGTTLTVSS
VL: DIQMTQSPSSLSASLGERVSLTCRASQDIGDRLIWLQQEPAGTFKRLIYATSSLDSGVPKRFSGSRSGSDYSLTISSLESEDFVDYYCLQYASSPWTFGGGTKLEIK
notes: Mouse variable regions on human IgG heavy chain constant region and human kappa constant region (chimeric IgG); also called Clone 14E4
B4: CD73 antibody 14H10 (antibody, V domains shown)
VH: QIQLQQSGAELARPGASVNLSCKASGYSFTSYWMQWLKQRPGQGLEWIGAIYPGDGDTRYTQKFKGKATLTADKSSSTAYMQLSSLASEDSAVYYCALFSYWGQGTLVTVSA
VL: B3 VL with D31S, R32S, I34N, A41D, S53T, S94F, W96Y
notes: Mouse variable regions on human IgG heavy chain constant region and human kappa constant region (chimeric IgG)
B5: CD73 antibody 7E10 (antibody, V domains shown)
VH: QVQFQQSGAELVRPGASVKLSCKASGYIFSSYWIQWVKQRPGQGLEWIGAIYPGDGDTRYTQKFKDKATLTADKSSSTAYMQLSSLASEDSAVYYCAGFASWGQGTLVTVSA
VL: B3 VL with D31S, R32S, I34N, A41N, F44I, V84A, W96Y
notes: Mouse variable regions on human IgG heavy chain constant region and human kappa constant region (chimeric IgG); also called Clone 7E10
B6: CD73 antibody 6A8 (antibody, V domains shown)
VH: B5 VH with V12A, A16T, S30T, V37I, D66G, D73E, S84R, V108L
VL: B3 VL with S20N, R32S, A41D, F44I, F83L, W96F
notes: Mouse variable regions on human IgG heavy chain constant region and human kappa constant region (chimeric IgG); also called Clone 6A8
B7: CD73 antibody 8A8 (antibody, V domains shown)
VH: B5 VH with V12A, S30T, V37I, D66G, S84R, V108L
VL: B3 VL with D31E, R32S, A41D, F44I, T74S, E81D, A92S, W96Y
notes: Mouse variable regions on human IgG heavy chain constant region and human kappa constant region (chimeric IgG); also called Clone 8A8
B8: CD73 antibody 22C12 (antibody, V domains shown)
VH: QVQFQQSGAELARPGASVKLSCKASGYTFTGYWIQWVKQRPGQGLEWIGAIYPGDDDTRYTQKFKGRATLTADTSSSTAYMQLSSLASEDSAVYYCARGNWDDWDFDVWGAGTTVTVSS
VL: DIQMTQTTSSLSASLGDRVTISCRASQDISNYLNWYQQKPDGTVKLLIHYTSRLHSGVPSRFSGSGSGTDYSLTISNLEQEDIATYFCQQGDTLPWTFGGGTKLEIK
notes: Mouse variable regions on human IgG heavy chain constant region and human kappa constant region (chimeric IgG); also called Clone 22C12; mAb22C12
B9: humanized anti-CD73 antibody 6G8 VH-v1/VK-v1 (antibody, V domains shown)
VH: QVTLRESGPALVKPTQTLTLTCTFSGFSLSTSGMGVGWIRQPPGKALEWLAHIWWDDDKYYNPSLKSRLTISKDTSKNQVVLTMTNMDPVDTATYYCARRERWAWFAYWGQGTLVTVSS
VL: DIQMTQSPSSLSASVGDRVTITCRASQNVFTNVAWYQQKPGKAPKVLIYSASYRYSGVPSRFSGSGSGTDFTLTISSLQPEDFATYFCQQYNSYPTFGQGTKLEIK
notes: Human IgG1 CH1-CH3 constant region and kappa constant region; also called hu6G8 VHv1 + hu6G8 Vkv1
B10: humanized anti-CD73 antibody 22C12 VH-v10/VL-v2 (antibody, V domains shown)
VH: QVQLVQSGAEVKKPGASVKVSCKASGYTFTGYWIQWVRQAPGQGLEWMGAIYPGDEDTRYTQKFQGRVTMTADTSISTAYMELSRLRSDDTAVYYCARGNWDDWDFDVWGQGTTVTVSS
VL: DIQMTQSPSSLSASVGDRVTITCRASQDISNYLNWYQQKPGKAPKLLIHYTSRLHSGVPSRFSGSGSGTDYTLTISSLQPEDFATYYCQQGDTLPWTFGQGTKVEIK
notes: Human IgG1 CH1-CH3 constant region and kappa constant region; also called hu22C12 VHv10 (printed hu22C12 Vilv10) + hu22C12 Vkv2
B11: humanized anti-CD73 antibody 22C12 VH-v9/Vk-v2 (antibody, V domains shown)
VH: B10 VH with E56S
VL: B10 VL
notes: Human IgG1 CH1-CH3 constant region and kappa constant region; also called hu22C12 VHv9 (printed hu22C12V11v9) + hu22C12 Vkv2
B12: humanized anti-CD73 antibody 22C12 VH-v10/VL-v3 (antibody, V domains shown)
VH: B10 VH
VL: B10 VL with Y71F
notes: Human IgG1 CH1-CH3 constant region and kappa constant region; also called hu22C12 VHv10 (printed hu22C12 Vilv10) + hu22C12 Vkv3

What follows are binders tested against T1, human CD73 on Calu6 cells (assay: cell-based or functional assay).

| CD73 endocytosis ratio %, 30 minutes [%] | CD73 endocytosis ratio %, 60 minutes [%] | CD73 endocytosis ratio %, 120 minutes [%] | CD73 endocytosis ratio %, 240 minutes [%] | CD73 endocytosis ratio %, 480 minutes [%] | Binder |
| --- | --- | --- | --- | --- | --- |
| 19.1 | 28.1 | 29.7 | 39.5 | 36.9 | B1 |
| 22.4 | 27.4 | 45.8 | 33.4 | 49.3 | B2 |
|  | 19.3 | 2.6 | 12.7 | 2.6 | B3 |
|  | 33.1 |  |  |  | B4 |
| 9.9 | 25.1 |  | 6.6 | 6.2 | B5 |
|  | 16.2 |  |  |  | B6 |
| 21.2 | 25.6 | 27.3 | 44.2 | 40.5 | B7 |
|  | 6.1 | 11.1 |  | 13.2 | B8 |

Target: T1, human CD73 on Calu6 cells
Test: cell-based or functional assay
Remark: another data set of the same source

| Inhibition of CD73 enzyme activity IC50(nM), Calu6 [nM] | Binder |
| --- | --- |
| 0.47 | B1 |
| 4.03 | B2 |
| 4.57 | B3 |
| 1.71 | B4 |
| 7.66 | B5 |
| 6.63 | B6 |
| 4.89 | B7 |
| 0.97 | B8 |

The binders below were run against T2, human full-length CD73 on … (assay: FACS on CHO-CD73-1C11 cells).

| EC50 [nM] | Binder |
| --- | --- |
| 1.76 | B1 |
| 1.53 | B2 |
| 6.55 | B3 |
| 2.62 | B4 |
| 8.59 | B5 |
| 11 | B6 |
| 1.47 | B7 |
| 1.43 | B8 |

Target: T3, recombinant cynomolgus monkey CD73 …
Test: ELISA, plate coated with recombinant CD73 extracellular domain

| EC50 [nM] | Binder |
| --- | --- |
| 0.02 | B1 |
| 0.02 | B2 |
| 0.18 | B3 |
| 0.07 | B4 |
| 0.11 | B5 |
| 0.09 | B6 |
| 0.02 | B7 |
| 0.05 | B8 |

These binders were tested against T4, recombinant human CD73 extracellular … in the same assay as above.

| EC50 [nM] | Binder |
| --- | --- |
| 0.02 | B1 |
| 0.02 | B2 |
| 0.06 | B3 |
| 0.03 | B4 |
| 0.07 | B5 |
| 0.08 | B6 |
| 0.02 | B7 |
| 0.04 | B8 |

The binders below were run against T1, human CD73 on Calu6 cells (assay: FACS on Calu6 cells).

| EC50 [nM] | Binder |
| --- | --- |
| 1.25 | B1 |
| 0.93 | B2 |
| 2.56 | B3 |
| 2.28 | B4 |
| 2.52 | B5 |
| 3.51 | B6 |
| 0.61 | B7 |
| 1.2 | B8 |

The binders below were run against T4, recombinant human CD73 extracellular … (assay: SPR, Biacore T200, antibody captured on Protein A chip, hCD73 ECD as analyte, 1:1 Langmuir).
Protocol: The affinity of CD73 antibody was determined by plasma surface resonance on Biacore T200. At room temperature, the antibody concentration was diluted to 0.5 μg/mL with 1×HBS-EP buffer (prepared from HBS-EP+Buffer 10×, GE, BR1008-26), the Protein A chip (GE, 29-1275-56) was coated with a flow rate of 10 μL per minute, the capture time was about 40 seconds, and the coated RU value was controlled to be about 100 RU. The recombinant human CD73 extracellular domain protein was diluted to 3 μg/mL with 1×HBS-EP buffer, diluted to two-fold gradient, a total of 6 concentrations, 200 μL of each concentration gradient. The 1×HBS-EP buffer was used as a control, the flow rate was 30 μl/min, the binding time was 120 seconds, and the dissociation time was 600 seconds. The affinity was fitted using Langmuir 1:1 Kinetic theoretical model and analyzed by Biacore T200 Evaluation Software (Table 3).

| Kd [nM] | koff [s⁻¹] | kon [M⁻¹ s⁻¹] | Binder |
| --- | --- | --- | --- |
| 0.272 | 0.000106 | 389000 | B9 |
| 0.134 | 0.000225 | 1.68e+06 | B10 |
| 0.135 | 0.000165 | 1.22e+06 | B11 |
| 0.0956 | 0.000179 | 1.87e+06 | B12 |
